Data as given in patent US7507799 (CORNELL RESEARCH FOUNDATION, dated 2009).

Experiments:
[1] = biological target: p75 on vascular smooth muscle cell line (p75Ts-Tag-SMC); assay: cell-based or functional assay
p75NTR on A875 cells [2] = biological target: T1, p75NTR on A875 cells (UniProt P08138 29-427); assay: whole-cell competition against 1 nM 125I-NGF on cells expressing only p75 (A875 cells)
T1 construct: whole, on cells; also called p75 receptor; cells expressing only p75
T1 sequence (looked up): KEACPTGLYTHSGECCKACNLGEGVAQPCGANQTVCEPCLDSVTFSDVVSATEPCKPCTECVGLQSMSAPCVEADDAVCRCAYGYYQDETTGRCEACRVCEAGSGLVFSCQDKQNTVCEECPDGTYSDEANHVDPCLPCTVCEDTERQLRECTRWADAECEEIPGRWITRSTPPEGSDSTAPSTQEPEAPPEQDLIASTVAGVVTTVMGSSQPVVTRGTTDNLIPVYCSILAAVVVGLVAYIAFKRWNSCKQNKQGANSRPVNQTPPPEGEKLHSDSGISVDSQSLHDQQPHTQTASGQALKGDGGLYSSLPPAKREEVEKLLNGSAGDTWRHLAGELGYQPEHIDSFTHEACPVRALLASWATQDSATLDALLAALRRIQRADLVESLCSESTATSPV
Protocol: (§1) FIG. 8: Binding analysis of mature and cleavage-resistant pro-NGF to TrkA or p75^NTR receptors. […] Competition analysis of equilibrium binding was performed using a whole-cell assay. Cells were incubated with 1 nM radioiodinated NGF in the presence or absence of unlabeled mature NGF or unlabeled proNGF from 0.005 to 7 nM concentration for 1 hour at […] Nonspecific binding measured in parallel incubation with 500-fold excess mature NGF was less than 10% of total binding; all results were corrected for this non-specific binding. Each point represents the mean±standard deviation of quadruplicate determinations. Squares, commercial mature NGF; open circles, cleavage resistant pro-NGF.
(§2) The cleavage resistant proform of NGF binds with higher affinity than the cleaved mature form of NGF to the p75 receptor. Competition binding assays were performed to determine the affinity of interaction of the uncleaved proform to p75 or to trk A. Commercially purchased, predominantly mature NGF (Enzo Products for Science, Farmingdale, N.Y.) was radiolabeled and incubated with cells expressing only p75, in the presence or absence of increasing concentrations of either unlabeled cleaved NGF, or of unlabeled cleavage resistant pro-NGF. […] Thus, the cleavage resistant pro-NGF proform binds less effectively to trk A.

TrkA on 293 cells = assay: whole-cell competition against 1 nM 125I-NGF on 293 cells expressing only trk A
TrkA on 293 cells, sequence (chain, as listed by the source): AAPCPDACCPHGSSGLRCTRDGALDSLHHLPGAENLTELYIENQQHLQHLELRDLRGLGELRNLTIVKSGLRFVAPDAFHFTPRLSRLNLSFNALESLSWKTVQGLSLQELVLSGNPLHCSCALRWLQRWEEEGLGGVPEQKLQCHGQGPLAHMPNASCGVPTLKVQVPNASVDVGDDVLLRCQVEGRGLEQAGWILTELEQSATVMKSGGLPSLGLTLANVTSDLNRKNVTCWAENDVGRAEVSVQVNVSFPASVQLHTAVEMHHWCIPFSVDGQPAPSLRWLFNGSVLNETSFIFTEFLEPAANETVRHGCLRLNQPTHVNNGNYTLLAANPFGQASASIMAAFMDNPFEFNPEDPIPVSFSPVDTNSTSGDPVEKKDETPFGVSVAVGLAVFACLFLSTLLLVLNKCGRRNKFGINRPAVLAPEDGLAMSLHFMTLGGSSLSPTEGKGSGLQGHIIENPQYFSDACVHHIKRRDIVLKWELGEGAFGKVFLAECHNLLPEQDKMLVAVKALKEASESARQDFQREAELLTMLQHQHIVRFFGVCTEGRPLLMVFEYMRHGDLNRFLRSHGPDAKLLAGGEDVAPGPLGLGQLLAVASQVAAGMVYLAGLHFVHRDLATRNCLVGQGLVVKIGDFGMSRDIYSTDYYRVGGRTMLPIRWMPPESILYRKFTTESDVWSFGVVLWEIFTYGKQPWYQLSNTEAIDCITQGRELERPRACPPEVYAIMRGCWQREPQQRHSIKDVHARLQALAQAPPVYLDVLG
Protocol: as §1, §2

p75NTR on A875 cells [3] = biological target: T1, p75NTR on A875 cells; assay: ratio of IC50s, whole-cell competition against 125I-NGF on cells expressing only p75
Protocol: as §1, §2

induction of apoptosis relative to mature NGF [1]: ~10 fold
IC50 (p75NTR on A875 cells [2]): 0.2 nM
IC50 (TrkA on 293 cells): > 5 nM
times as effective in binding p75 as cleaved NGF (p75NTR on A875 cells [3]): ~5 fold
B1: His-tagged cleavage resistant pro-NGF (point mutant, K-R cleavage site at 120,121 mutated to A-A) (ligand)
chain: EPYTDSNVPEGDSVPEAHWTKLQHSLDTALRRARSAPTAPIAARVTGQTRNITVDPRLFKKRRLHSPRVLFSTQPPPTSSDTLDLDFQAHGTIPFNRTHRSAASSTHPVFHMGEFSVCDSVSVWVGDKTTATDIKGKEVTVLAEVNINNSVFRQYFFETKCRASNPVESGCRGIDSKHWNSYCTTTHTFVKALTTDEKQAAWRFIRIDTACVCVLSRKATRRG
notes: also called cleavage resistant proform of NGF; uncleaved proform; not shown: His tag at the carboxy-terminus
